Assay results taken from the Human Domainome abundance scans (Beltran et al. 2025).

B1: Tyrosine-protein kinase Lck, residues 63 to 120; numbered along this chain, P06239 (parent)
chain: DNLVIALHSYEPSHDGDLGFEKGEQLRILEQSGEWWKAQSLTTGQEGFIPFNFVAKAN

Variants of: B1
Experiment: abundance fitness (aPCA) (normalised: wild type 0, dead -1); higher = more abundant; growth selection in yeast, the domain comes from the species named
Conditions: Homo sapiens

Abundance fitness, by site and new letter:
N52: A -0.202 | W -0.278 | P -0.628 | H -0.189 | R -0.017 | E 0.029 | T -0.207 | K 0.023 | D 0.001 | C -0.303 | F -0.589 | Y -0.311 | V -0.709 | Q -0.021 | G -0.067 | I -0.854 | L -0.624
F48: V -0.096 | H -0.172 | I -0.264 | E -0.286 | K 0.115 | S -0.308 | Q -0.274 | A -0.235 | G -0.576 | T -0.115 | M -0.063 | W 0.075 | P -0.52 | L 0.019 | R 0.011 | D -0.559
P50: K -0.719 | E -1.21 | T -0.851 | G -0.888 | V -0.936 | Y -1.08 | D -0.73 | N -0.652 | S -0.796 | L -0.995 | H -0.474 | M -1.03 | W -0.709 | F -0.885 | I -0.874 | A -1
S40: K -0.076 | M -0.918 | P -0.793 | A -0.382 | V -0.641 | F -0.908 | H -0.115 | R -0.107 | E -0.789 | D -0.626 | I -0.687 | Y -0.862 | N -0.135 | T -0.484 | L -0.538 | W -0.989 | Q -0.622 | G -0.795
W36: R -0.213 | K -0.521 | T -0.029 | A 0.032 | V -0.1 | E -0.881 | D -0.614 | Y -0.074 | G -0.283 | M -0.075 | S -0.408 | C -0.046 | I -0.617 | F -0.181 | P -0.298 | H -0.585 | L -0.101
F51: K 0.103 | V -0.033 | I 0.047 | Y -0.037 | H -0.055 | R 0.148 | N 0.043 | L -0.221 | M 0.137 | C 0.163 | P 0.07 | A 0.104 | E -0.022 | Q 0.021 | T -0.235 | G 0.095 | D -0.178
T42: Y -0.129 | F -0.305 | L -0.12 | W -0.24 | I -0.049 | N 0.034 | S -0.031 | V -0.001 | D -0.181 | E -0.015 | H -0.08 | A -0.035 | Q -0.057 | M -0.101 | K 0.042 | P -0.715 | R -0.059 | G -0.248
A38: F -0.771 | C -0.4 | L -0.337 | V -0.104 | I -0.788 | T -0.963 | R -1.08 | W -0.598 | S -0.795 | N -0.445 | E -0.934 | Y -0.714 | M -0.656 | Q -0.891 | G -0.483 | K -0.927 | D -1.01
I49: E -0.996 | L -0.367 | A -0.646 | D -0.801 | W -0.967 | Q -0.796 | R -0.792 | V -0.094 | F -0.427 | M -0.663 | K -0.771 | H -0.794 | N -0.828 | Y -1.2 | C -0.67 | S -0.939 | T -0.622 | G -0.905 | P -0.759
E34: V -0.076 | S -0.054 | T -0.092 | R 0.006 | W -0.34 | Y -0.026
L41: S -0.478 | E -0.153 | Q -0.167 | Y -0.65 | G -0.721 | M -0.227 | P -0.339 | F -0.54 | N -0.624 | K -0.348 | A -0.382 | C -0.068 | I -0.058 | D -0.666 | R -0.513 | H -0.765 | W -0.933 | T -0.149
T43: M -0.766 | N -0.277 | D -0.446 | H -0.622 | P -0.909 | Q -0.549 | K -0.698 | Y -0.85 | G -0.658 | I -0.941 | F -0.957 | A -0.617 | C -0.949 | S -0.101 | V -0.854 | R -0.624 | W -1.1 | L -0.831 | E -0.643
F53: I -0.156 | S 0.032 | C -0.157 | V -0.268 | W -0.107 | T -0.214 | G -0.423 | P -0.842 | A -0.013 | H -0.162 | L -0.028 | Q -0.293 | R -0.196 | K -0.37 | E -0.488 | M -0.143 | N -0.527
V54: C -0.375 | D -0.926 | A -0.663 | F -0.6 | E -0.709
G44: M -0.272 | Q -0.24 | N -0.193 | P -1.07 | W -0.541 | R -0.22 | Y -0.467 | C -0.446 | H -0.321 | F -0.394 | A -0.264 | V -0.819 | I -0.591 | E -0.222 | L -0.271 | T -0.557 | S -0.268
E46: V 0.042 | W -0.517 | C -0.023 | P -0.745 | G -0.632 | R -0.207 | N -0.217 | S 0.021 | F -0.294 | A -0.024 | I 0.131 | M -0.032 | Y -0.316 | K -0.05 | Q -0.038 | L -0.157 | H -0.448
W35: Y -0.131 | M 0.01 | I -0.049 | S 0.002 | L -0.029 | D -0.444 | Q 0.069 | A -0.044 | H -0.081 | C -0.185 | R 0.091 | G -0.303 | N -0.128
K37: G -0.96 | Q -0.406 | M -0.307 | Y -0.177 | I -0.151 | A -0.615 | V -0.232 | D -1.16 | R -0.046 | P -0.808 | W -0.152 | F -0.229 | N -0.548 | E -0.435 | T -0.267 | C -0.593 | S -0.321 | H -0.388
Q39: D -1.03 | C -0.386 | M -0.179 | I -0.327 | Y -0.468 | R -0.017 | G -0.722 | T -0.278 | F -0.503 | N -0.868 | A -0.361 | P -0.843 | S -0.297 | K -0.042 | W -0.784 | L -0.312
Q45: R -0.015 | P -0.57 | V -0.187 | G -0.308 | T -0.146 | K -0.101 | N -0.288 | I -0.662 | M -0.092 | W -0.599 | F -0.303 | H -0.23 | S -0.282 | A -0.087 | C -0.117 | L -0.112 | E 0.001 | D -0.217
G47: S -0.931 | P -0.687 | T -0.831 | H -0.81 | W -0.831 | L -0.789 | V -0.807 | C -1.07 | D -0.912 | R -0.687 | E -0.831 | F -0.982 | Q -0.986 | I -1.02 | M -0.884
